# Source: patent publication US20250163127A1 (published 2025)
# T1: CD80 (human)
# T1 chain: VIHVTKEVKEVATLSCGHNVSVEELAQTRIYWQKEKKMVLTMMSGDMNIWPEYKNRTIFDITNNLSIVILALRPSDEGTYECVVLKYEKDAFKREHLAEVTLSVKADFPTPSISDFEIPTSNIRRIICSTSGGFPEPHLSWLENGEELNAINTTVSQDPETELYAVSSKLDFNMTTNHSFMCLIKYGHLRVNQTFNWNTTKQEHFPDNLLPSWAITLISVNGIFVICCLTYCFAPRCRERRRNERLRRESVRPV
# B1: CTLA4 3037-Fc (Fc fusion)
# chain: KAMHVAQPAVVLASSRGIASFVCEYASPWKATEVRVTVLRQADSQVTEVCAATYMMGSELTFPDDSICTGTSSGNQVNLTIRGLRAMDTGLYICKVEQMYPPPYLLGIGNGTQIYVIDPEPCPDSDGSGGGGSEPKSSDKTHTCPPCPAPEAEGAPSVFLFPPKPKDTLMISRTPEVTCVVVDVSHEDPEVKFNWYVDGVEVHNAKTKPREEQYNSTYRVVSVLTVLHQDWLNGKEYKCKVSNKALPAPIEKTISKAKGQPREPQVYTLPPSRDELTKNQVSLTCLVKGFYPSDIAVEWESNGQPENNYKTTPPVLDSDGSFFLYSKLTVDKSRWQQGNVFSCSVMHEALHNHYTQKSLSLSPG
# B2: CTLA-4 3037-Fc-PD-L1 303 (SEQ ID NO 3670) (Fc fusion)
# chain: KAMHVAQPAVVLASSRGIASFVCEYASPWKATEVRVTVLRQADSQVTEVCAATYMMGSELTFPDDSICTGTSSGNQVNLTIRGLRAMDTGLYICKVEQMYPPPYLLGIGNGTQIYVIDPEPCPDSDGSGGGGSEPKSSDKTHTCPPCPAPEAEGAPSVFLFPPKPKDTLMISRTPEVTCVVVDVSHEDPEVKFNWYVDGVEVHNAKTKPREEQYNSTYRVVSVLTVLHQDWLNGKEYKCKVSNKALPAPIEKTISKAKGQPREPQVYTLPPSRDELTKNQVSLTCLVKGFYPSDIAVEWESNGQPENNYKTTPPVLDSDGSFFLYSKLTVDKSRWQQGNVFSCSVMHEALHNHYTQKSLSLSPGGGGGSGGGGSGGGGSFTVTVPKDLYVVEYGSNMTIECKFPVEKQLDLAALIVYWEMEGKDIIQFVHGEEDQKAQHSSYRQRARLLKDQLSLGNAALQITDVKLQDAGVYRCMISYGGGADYKRITVKVNA
# B3: CTLA-4 3037-PD-L1 303-Fc (Fc fusion)
# chain: KAMHVAQPAVVLASSRGIASFVCEYASPWKATEVRVTVLRQADSQVTEVCAATYMMGSELTFPDDSICTGTSSGNQVNLTIRGLRAMDTGLYICKVEQMYPPPYLLGIGNGTQIYVIDPEPCPDSDGSGGSGGGGSGGGGSFTVTVPKDLYVVEYGSNMTIECKFPVEKQLDLAALIVYWEMEGKDIIQFVHGEEDQKAQHSSYRQRARLLKDQLSLGNAALQITDVKLQDAGVYRCMISYGGGADYKRITVKVNAGGGGSGSGGGGSEPKSSDKTHTCPPCPAPEAEGAPSVFLFPPKPKDTLMISRTPEVTCVVVDVSHEDPEVKFNWYVDGVEVHNAKTKPREEQYNSTYRVVSVLTVLHQDWLNGKEYKCKVSNKALPAPIEKTISKAKGQPREPQVYTLPPSRDELTKNQVSLTCLVKGFYPSDIAVEWESNGQPENNYKTTPPVLDSDGSFFLYSKLTVDKSRWQQGNVFSCSVMHEALHNHYTQKSLSLSPG
# B4: PD-L1 303-CTLA-4 3037-Fc (Fc fusion)
# chain: FTVTVPKDLYVVEYGSNMTIECKFPVEKQLDLAALIVYWEMEGKDIIQFVHGEEDQKAQHSSYRQRARLLKDQLSLGNAALQITDVKLQDAGVYRCMISYGGGADYKRITVKVNAGSGGSGGGGSGGGGSKAMHVAQPAVVLASSRGIASFVCEYASPWKATEVRVTVLRQADSQVTEVCAATYMMGSELTFPDDSICTGTSSGNQVNLTIRGLRAMDTGLYICKVEQMYPPPYLLGIGNGTQIYVIDPEPCPDSDGGGGSGSGGGGSEPKSSDKTHTCPPCPAPEAEGAPSVFLFPPKPKDTLMISRTPEVTCVVVDVSHEDPEVKFNWYVDGVEVHNAKTKPREEQYNSTYRVVSVLTVLHQDWLNGKEYKCKVSNKALPAPIEKTISKAKGQPREPQVYTLPPSRDELTKNQVSLTCLVKGFYPSDIAVEWESNGQPENNYKTTPPVLDSDGSFFLYSKLTVDKSRWQQGNVFSCSVMHEALHNHYTQKSLSLSPG
# B5: CTLA4 3037-Fc-PD-L1 303 (SEQ ID NO 3672) (Fc fusion)
# chain: KAMHVAQPAVVLASSRGIASFVCEYASPWKATEVRVTVLRQADSQVTEVCAATYMMGSELTFPDDSICTGTSSGNQVNLTIRGLRAMDTGLYICKVEQMYPPPYLLGIGNGTQIYVIDPEPCPDSDGSGGGGSEPKSSDKTHTCPPCPAPEAEGAPSVFLFPPKPKDTLMISRTPEVTCVVVDVSHEDPEVKFNWYVDGVEVHNAKTKPREEQYNSTYRVVSVLTVLHQDWLNGKEYKCKVSNKALPAPIEKTISKAKGQPREPQVYTLPPSRDELTKNQVSLTCLVKGFYPSDIAVEWESNGQPENNYKTTPPVLDSDGSFFLYSKLTVDKSRWQQGNVFSCSVMHEALHNHYTQKSLSLSPGGGGGSGGGGSGGGGSAFTVTVPKDLYVVEYGSNMTIECKFPVEKQLDLAALIVYWEMEGKDIIQFVHGEEDQKAQHSSYRQRARLLKDQLSLGNAALQITDVKLQDAGVYRCMISYGGGADYKRITVKVNA
# B6: PD-L1 303-Fc + Fc (Fc fusion)
# chain 1: HMSSVSAQAAAEPKSSDKTHTCPPCPAPEAEGAPSVFLFPPKPKDTLMISRTPEVTCVVVDVSHEDPEVKFNWYVDGVEVHNAKTKPREEQYNSTYRVVSVLTVLHQDWLNGKEYKCKVSNKALPAPIEKTISKAKGQPREPQVYTLPPCREEMTKNQVSLWCLVKGFYPSDIAVEWESNGQPENNYKTTPPVLDSDGSFFLYSKLTVDKSRWQQGNVFSCSVMHEALHNHYTQKSLSLSPGK
# chain 2: FTVTVPKDLYVVEYGSNMTIECKFPVEKQLDLAALIVYWEMEGKDIIQFVHGEEDQKAQHSSYRQRARLLKDQLSLGNAALQITDVKLQDAGVYRCMISYGGGADYKRITVKVNAGSGGSGGGGSGGGGSEPKSSDKTHTCPPCPAPEAEGAPSVFLFPPKPKDTLMISRTPEVTCVVVDVSHEDPEVKFNWYVDGVEVHNAKTKPREEQYNSTYRVVSVLTVLHQDWLNGKEYKCKVSNKALPAPIEKTISKAKGQPREPQVCTLPPSREEMTKNQVSLSCAVKGFYPSDIAVEWESNGQPENNYKTTPPVLDSDGSFFLVSKLTVDKSRWQQGNVFSCSVMHEALHNHYTQKSLSLSPGHHHHHH
# B7: PD-L2 1417-Fc + Fc (Fc fusion)
# chain 1: B6 chain 1
# chain 2: LFTVTVPKELYIIEQGSNVTLECNFDTGSHVNLGAITASLQKVENDASPHRERATLLEEQLPLGRALFHIPQVQVRDEGQYRCIIIYGDAWDYKYLTLKVKAGSGGSGGGGSGGGGSEPKSSDKTHTCPPCPAPEAEGAPSVFLFPPKPKDTLMISRTPEVTCVVVDVSHEDPEVKFNWYVDGVEVHNAKTKPREEQYNSTYRVVSVLTVLHQDWLNGKEYKCKVSNKALPAPIEKTISKAKGQPREPQVCTLPPSREEMTKNQVSLSCAVKGFYPSDIAVEWESNGQPENNYKTTPPVLDSDGSFFLVSKLTVDKSRWQQGNVFSCSVMHEALHNHYTQKSLSLSPGHHHHHH
# B8: PD-L1 303-COMP (other)
# chain: FTVTVPKDLYVVEYGSNMTIECKFPVEKQLDLAALIVYWEMEGKDIIQFVHGEEDQKAQHSSYRQRARLLKDQLSLGNAALQITDVKLQDAGVYRCMISYGGGADYKRITVKVNAGGGGSGGGGSGGGGSDLGPQMLRELQETNAALQDVRELLRQQVREITFLKNTVMECDACGDYKDDDDKHHHHHH
# B9: PD-L1 303-Fc (SEQ ID NO 3531) (Fc fusion)
# chain: FTVTVPKDLYVVEYGSNMTIECKFPVEKQLDLAALIVYWEMEGKDIIQFVHGEEDQKAQHSSYRQRARLLKDQLSLGNAALQITDVKLQDAGVYRCMISYGGGADYKRITVKVNAGGGGSGGGGSEPKSSDKTHTCPPCPAPEAEGAPSVFLFPPKPKDTLMISRTPEVTCVVVDVSHEDPEVKFNWYVDGVEVHNAKTKPREEQYNSTYRVVSVLTVLHQDWLNGKEYKCKVSNKALPAPIEKTISKAKGQPREPQVYTLPPCREEMTKNQVSLWCLVKGFYPSDIAVEWESNGQPENNYKTTPPVLDSDGSFFLYSKLTVDKSRWQQGNVFSCSVMHEALHNHYTQKSLSLSPG
# Target: T1, CD80
# Assay: flow cytometry, CHO-CD80 cells
row,EC50,Binder
1,1.7 nM,B1
2,1.9 nM,B2
3,2.3 nM,B3
4,1.4 nM,B4
5,0.921 nM,B5

# Target: human PD-1 (human, UniProt Q15116)
# Assay: flow cytometry, Jurkat/IL-2/PD-1 cells
row,EC50,Binder
1,4.5 nM,B2
2,111 nM,B3
3,1 nM,B4
4,6.8 nM,B5

# Target: PD-1 (human, UniProt Q15116)
# Assay: cell-based or functional assay
row,% CD25 Hi FoxP3 +,Binder
1,25.9 % at 100 nM,B6
2,26.8 % at 100 nM,B7
3,23.5 % at 100 nM,B8
4,24.8 % at 100 nM,B9
